From the nanobody polyreactivity screen of Harvey et al. (2022)

Assay: yeast display, Sf9 membrane polyspecificity reagent, FACS + sequencing; frameworks hold sequencing errors
Procedure, shortened: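 Galactose induction of a Saccharomyces cerevisiae BJ5465 synthetic nanobody display library ran 36–48 hours. The cells were then stained for 1 hour at 4 °C with 10% biotinylated, detergent-solubilized Sf9 membrane reagent, pulled down on streptavidin microbeads and FACS-sorted into low and high (top ~1%) gates on expression and reagent-binding fluorescence. Labels for polyreactivity follow the gate of origin.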

| Sequence | polyreactivity (PSR sort gate) |
| --- | --- |
| QVQLVESGGGLVQAGGSLRLSCAASGFTFPDYAMGWYRQAPGKERELVAAISSDCSTYYADSVKGRFTISRDNAKNTVYLQMNSLKPEDTAVYYCAAYVVWLYGYDYWGQGTQVTVSS | low polyreactivity |
| QVQLVESGGGLVQAGGSLRLSCAASGFTFRNYAMGWYRQAPGKERELVAAISKSGGSTYYADSVKGRFTISRDNAKNTVYLQMNSLKPEDTAVYYCATDYLYVYGFEYYYWGQGTQVTVSS | high polyreactivity |
| QVQLVESGGGVVQAGGSLRLSCAASGSIFSLYAMGWYRQAPGNERELVDAISSSGTSTYYADSVKGRFTISRDNAKNSVYLHMNSLKPEDTAVYYCNAYRRRATYNGDYWGQGTQVTVSS | high polyreactivity |
| QVQLVESGGGLVQAGGSLRLSCAASGRTFHYYVRGWSRQAPGKERELVAAISRSGGNTYYADSVKGRFTISRDNAKNTVYLQMNSLKPEDTAVNYCAAALSAYVKWDYYYWGQGTQVTVSS | low polyreactivity |
| QVQLVETGGGLVQAGGSLRLSCAASGFIFRGNAMGWYRQAPGKERELVAAISKRGGSTNYADSVKGRFTISRDNAKNTVYLQMNSLKPEDTAVYYCNAEGIYRQPRGYVYRYDYWGQGTQVTVSS | high polyreactivity |
| QVQLVESGGGLVQAGGSLRLSCAASGRTFPENAKGWYTQAPGKEREFVAVISSGGGSTTYADSVKGRFTISRDNAKNTVYLQMNSLKPEDTAVYYCATEYYFHGYWITYSWGQGTQVTVSS | low polyreactivity |
| QVQLVESGGGLVQAGGSLRLSCAASGSIFADYAMGWYRQAPGKERELVAVITSGGRTNYADSVKGRFTISRDNAKNTVYLQMNSLKPEDTAVYYCDTRRYRYYAYRNYYYWGQGTQVTVSS | high polyreactivity |
| QVQLVESVGGLVQAGGSLRLSCAGSGFTCGAYAMGWSRQAPRKERELVAAINTRGGSRYYADSVKGRFTISRDNAKNTVYLQMNSLKPEDTAVYYCAASVYFWYDYWGQGTQVTVSS | high polyreactivity |
| QDQLVESGGGLVQAGGSLSLSCAASGLIFSDNAMGWYRQAPGKERELVATITFSGSTNYADSVKGRFTISRDNAKNTVYLQMNSLKPEDTAVFFCAADAGGGPFEYWGQGTHVTVSS | low polyreactivity |
| QVQLVESGGGLLQAGGSLRLSCAASGNIFTYYAMGWYRQAPGKERDLVAAIRWRSGSTYYADSVKGRFTISRDNAKNTVYLQMNSLKPEDTAVYYCADDGTPYEYDYWGQGTQVTVSS | low polyreactivity |
| QVQLVESGGGLVQARGSLRLSSAASGSTFVVNAMGWYRQAPGKERELVAAITQSGGSTFYADSVKGRFTISRVNAKNTVYLQMNSLQAEDTAVYYWGQGTQVTVSS | low polyreactivity |
| QVQLVESGGGLVQAGRSLRLSCAASGIIFEWNGMGWYRQAPGKERELVAALPWSGGSTYYADSVKGRFTISRDNAKNTVYLQMNSLKPEDTAVYYCNAYWKDDFEDGPGRRGMDYWGQGSQVTVSS | low polyreactivity |
| QVQLVESGGGLVQAGGSLRLSCAASGITFYHYAMGWYRQAPGKKRELVASITDGGITKYADSVKGRFTISRDNAKYTVYLQMNSQNPEDTAVYYCAAIAYPDIPTYFDYDSDFFYWGQGTQVTVSS | high polyreactivity |
| QVHLVESVGGLLQAGGSLPLSCPASGSTFYDYAMGWYRPAPGKERELVASITTGGDSTYYADSVKGRFTISRDNAKNSVYLQMKSLIPEDSAVYYFNADWYYWFSNYQGAPEMDYWGQGTQVSVSS | high polyreactivity |
| QVQLVESGGGLVQAGGSLRLSCAASGSTFVVNAMGWYRQAPGKERELVAAITLSTGSTYYADSVKGRFTISRDNAKNTVYLQMNSLKPEDTAVYYCNTEIYVDIISDYGYWGQGTEVTVSS | low polyreactivity |
| QVQLVESGGGLVQAGGSLRLSCAASGFIFTSYAMGWYRQAPGKERELVAAIDYSGGSTYYADSVKGRFTISRDNAKNTVYLQMNSLKPEDTAVYYCAAGDGLWPGSQTYDYWGQGTQVTVSS | low polyreactivity |
| QVQLVESGGGLVQAGGSLRLSCAASGRTFTRYTMGWYRQAPGKERELVAGITRSGGSTYYADSVKGRFTISRDNAKNTVYLQMNSLKPEDTAVYYCAARLSGRYDSQDNYWGQGTQVTVSS | high polyreactivity |
| QVQLVESGGGLVQAGGSLRLSCAASGITLGTYVMGWYRQAPGKERELVAAISSGGSTYYADSVKGRFTISRDNAKNTVYLQMNSLKPEDTAVYYCAAQYYPYYDSRVSYDYWGQGTQVTVSS | low polyreactivity |
| QVQLVESGGGLVQAGGSLRLSCAASGFTFGWNAMGWYRQAPGKERELVAAISWSGGSTYYADSVKGRFTISRDNAKKTVYLQMNSLKPEDTAVYYCAAYPAYGGDYWGQGTQVTVSS | high polyreactivity |
| QVQLVESGGGLVQAGGSLRLSCAASGSTFYVYAMGWYRQAPGKERELVAAITSGDDTNYADSVKGRFTISRDNAKNTVYLQMNSLKPEDPAVYYCAAEAVGYGSPRGYYWYDYWGQGTQVTVSS | high polyreactivity |

| Sequence | polyreactivity (PSR sort gate) |
| --- | --- |
| QVQLVESGGGLVQAGGSLRLSCAASGITYGIYSMGWYRQAPGKERELVAAIDGSDGSTYYADSVKGRFTISRDNAKNTVYLQMNSLKPEDTAVYYCNADTGGYYVTGSYLYNEYDYWGQGTQVTVSS | low polyreactivity |
| QVQLVESGGGLVQAGGSLRLSCAASGSTFDVYAMGWYRQAPGKERELVAAISYIGDNTYYADSVKGRFTISRDNAKNTVYLQMNSLKPEDTAVYYCAAEAEHYSFQDYYVEYDYWGQGTQVTVSS | high polyreactivity |
| QVQLVESGGGLVQAGGSLRLSCAASGGTFSVYVMGWYRQAPGKERELVAAIRDRGVSTYYADSVKGRFTISRDNAKNTVYLQMNSEKPEDTAVSYCAAKYSYSRKPGAYYYWGQGTQVTVSS | high polyreactivity |
| QVQLVESGGGLVQAGGSLRLSCAASGRIFTGNVMGWYRQAPGKERELVAAISVSGGRTYYADSVKGRFTISRDNAKNNVYLQMNSLKPEDTAVYYCNARFSRVWYGGDYWGQGTQVTVSS | high polyreactivity |
| QVQLVESGGGLVQAGGSLRLSCAASGRIFPYYAMGWYRQAPGKEREFVAAITSSGGTTYYADSVKGRFTISRDNAKNTVYLQMNSLKPEDTAVYYCFAVRLYALYAGRPYDYWGQGTQVTVSS | low polyreactivity |
| QVQLVESGGGLVQAGGSLRLSCAASGSIFLLYAMGWYRQAPGKERELVARISWSGDNTRYADSVKGRFTISPDNAKNTVYLQMNSLKPEDTAVYYCNAYFFYGQWKGYDYWGQGTQVTVSS | low polyreactivity |
| QVQRVESGGGLVQAGGSLRLSCAASGRTFYPNAMGWSRQAPGKERELVADITYSGASTYYADSVKGRFTISRDNAKNTVYLQMNSMKPEDTAVYYCAKVYGQMVSGGYVTRYDFWGQGTQVTVSS | low polyreactivity |
| QVQLVESGGGLVQAGGSLRLSCAASGITFGHYTMGWYRQAPGKEWDLVAAISWSGGSTYYADSVKGRFTISRDNAKYTVYLQMNSLKPEDTAVYYCNRVKRVIASYDSDYWGQGTQVTVSS | low polyreactivity |
| QVQLVESGGGLVQAGGSLRISCAASGRIFRVYAMGWYRQAPGKERELVAAISYSGGRTFYADSVKGRFTNSRDNAKNTVYLQMNSLKPEDTAVYYCAATSYSTQALPPFDYWGQGTQVTVSS | low polyreactivity |
| QVQLVESGGGLVQAGGSLRLSCAASGSIFGGYAMGWYRQAPGKERELVARITDRGGSTDYADSVKGRFTISRDNAKNTVYLQMNSLKPEDTAVYYCAKRGDRYEKRPRDYWGQGTQVTVSS | low polyreactivity |
| QVQLVESGGRLVQAGGSLRLSCAASGRIFSPYAMGRYRPAPGKERELVAAITQSGGITSYADSVKGRFTISRDNAKNTVYLQMISLKPEDTAVYYCNKDVWDGYDWPEFDYWGQGTQVTVSS | low polyreactivity |
| QVQLQESGGGLVQAGGSLRLSCAASGSIFDSTFMGWYRQAPGKERELVAGISYGTITYYADSVKGRFTISRDNAKHRVSAEEQPESGRYRGVLLRGYPAGQLFLACWGQGTQVTESS | high polyreactivity |
| QVQLVEAGGGLVQAGGSLRLSGAASGSIFDYNAMGWYRQAPGKERELVASISYSGGSTYYADSVKGRFTISRDTAKNTVYLQMNSLKPEDTAVYYCNARFYWRWHTAYDYWGQGTQVTVSS | high polyreactivity |
| QVQLVYSGGGLVQAGGSLRLSCAASGSIFFVYAMGWYRQAPGKERELDAAITSGGSTKDADSVKGRFTISRDNAKNTVYLQMNSLKPEDTAVYYCAKDYKCIATEGAFDYWGQGTQVTVSS | low polyreactivity |
| QVQLVESGGGLVQAGGSLRLSCAASGFIFSYYVMGWYRQAPGKERELVAAINESGGRTYYADSVKGRFTISRDNAKNTVYLQMNSLKQEDTAVYYCAASVLNKIQGYRDYYWGQGTKVTVSS | low polyreactivity |
| QVQHVESVGGLVQARGSLRLSCAASGSIFDLYAMGWYRQAPGKERELVAGISYSGGSTYYADSVKGRFTISRDNAKNTVYLQMNSLKPEETAVYYCATAYYYHGGYYYPYDDYWGQGTQVTVSS | low polyreactivity |
| QVQLVESGGGLVQAGGSLRLSCAASGRTFTSYAMGWYRQAPGKERELVAVITWRGVSTYYADSVKGRFTISRDNAKNTVYLQMNSLKPEDTAVYYCAARRPGYYPYKGFDYWGQGTQVTVSS | high polyreactivity |
| QVHLVDTGGGLVQARGRLRLSCPASGYNFSYYAMASYRQAPGKERELVATIDWGGGSTYYADSVQGRFTISRDIAKNTVYLQLNSLKPEDTGVYYCAKDYYINNYGYRYVSWGKGTQVTVSS | low polyreactivity |
| QVQLVKSGGGLVQAGGSLRLTCAASGFTFFVYAMGWYRQAPGKETELVAAITSSGGSTYYADSVKGRFTISRDNAKNTVYLQMNSLKPEDTAVYYCAPDRYSYLGYPYEYEYWGQGTQVTVSS | low polyreactivity |
| QVQLVESGGGLVQAGGSLRLSCAASGIIFAYNAMGWYRQAPGKERELVAAISVIAGTTYYADSVKGRFTISRDNAKNTVYLQMNSLKPEDTAVYYCAVDSVQYGGGYERLHELYYWGQGTQVTVSS | low polyreactivity |
